Our source for the protein stability index values is the supplement of paper PMC10567573.

B1: NFE2L1 (parent)
chain: TLDGYGIHPKSIDLDNYFTARRLL
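Further: lentivirally expressed fusions sorted by FACS into six bins by GFP to DsRed ratio, PSI derived from sequencing read proportions per bin multiplied by bin number.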

This series covers variants of B1. The series can be described thus: protein stability index of a GFP-peptide fusion (GPS, HEK-293T) (PSI 1-6); higher = more stable. The following applies: c terminus: a fixed tail appended.
Turning to TLDGYGIHPKSIDLDNYFTARNLL [R22N], the protein stability index was 1.85.

Turning to TLDGYGIHPKSIDLDNYFTARYLL [R22Y], the protein stability index came out at 1.89.

As for TLDGYGIHPKSIDLDNYFTARELL [R22E], the protein stability index came out at 1.88.

In the case of TLDGYGIHPKSIDLDNYFTARPLL [R22P], the protein stability index turned out to be 1.97.

With TLDGYGIHPKSIDLDNYFTARQLL [R22Q], the protein stability index is 1.89.

Regarding TLDGYGIHPKSIDLDNYFTARVLL [R22V], the protein stability index turned out to be 1.71.

With TLDGYGIHPKSIDLDNYFTARDLL [R22D], the protein stability index came out at 2.05.

On to TLDGYGIHPKSIDLDNYFTARHLL [R22H], for which the protein stability index amounted to 2.2.

In the case of TLDGYGIHPKSIDLDTYFTARRLL [N16T], the protein stability index is 1.76.

TLDGYGIHPKSIDLDMYFTARRLL [N16M]: the protein stability index came out at 1.87.

For TLDGYGIHPKSIDLDAYFTARRLL [N16A], the protein stability index came out at 1.72.

For the variant TLDGYGIHPKSIDLDFYFTARRLL [N16F], the protein stability index worked out at 2.63.

TLDGYGIHPKSIDLDDYFTARRLL [N16D]: the protein stability index was 2.03.

Turning to TLDGYGIHPKSIDLDCYFTARRLL [N16C], the protein stability index came out at 2.51.

Regarding TLDGYGIHPKSIDLDSYFTARRLL [N16S], the protein stability index amounted to 2.6.

In the case of TLDGYGIHPKSIDLDHYFTARRLL [N16H], the protein stability index turned out to be 1.9.

For TLDGYGIHPKSIDLDKYFTARRLL [N16K], the protein stability index was 1.39.

With TLDGYGIHPKSIDLDEYFTARRLL [N16E], the protein stability index stood at 2.19.

For the variant TLDGYGIHPKSIDLDIYFTARRLL [N16I], the protein stability index worked out at 3.1.

As to TLDGYGIHPKSIDLDRYFTARRLL [N16R], the protein stability index was 1.82.

Turning to TLDGYGIHPKSIDLDYYFTARRLL [N16Y], the protein stability index came out at 2.19.

In the case of TLDGYGIHPKSIDLDGYFTARRLL [N16G], the protein stability index came out at 1.21.

Consider TLDGYGIHPKSIDLDPYFTARRLL [N16P], for which the protein stability index was found to be 1.98.

As to TLDGYGIHPKSIDLDVYFTARRLL [N16V], the protein stability index is 2.24.

Regarding TLDGYGIHPKSIDLDQYFTARRLL [N16Q], the protein stability index was determined as 1.8.

For the variant TLDGYGIHPKSIDLDWYFTARRLL [N16W], the protein stability index was found to be 1.96.

In the case of TLDGYGIHPKSIDEDNYFTARRLL [L14E], the protein stability index is 3.11.

Take TLDGYGIHPKSIDGDNYFTARRLL [L14G]: the protein stability index is 2.31.

Consider TLDGYGIHPKSIDNDNYFTARRLL [L14N], for which the protein stability index came to 2.17.

Consider TLDGYGIHPKSIDADNYFTARRLL [L14A], for which the protein stability index is 2.2.

Turning to TLDGYGIHPKSIDYDNYFTARRLL [L14Y], the protein stability index was determined as 2.25.

Consider TLDGYGIHPKSIDQDNYFTARRLL [L14Q], for which the protein stability index amounted to 2.21.

In the case of TLDGYGIHPKSIDMDNYFTARRLL [L14M], the protein stability index was found to be 2.02.

For TLDGYGIHPKSIDKDNYFTARRLL [L14K], the protein stability index worked out at 2.49.

Take TLDGYGIHPKSIDCDNYFTARRLL [L14C]: the protein stability index is 2.39.

Consider TLDGYGIHPKSIDFDNYFTARRLL [L14F], for which the protein stability index was 1.82.

As for TLDGYGIHPKSIDRDNYFTARRLL [L14R], the protein stability index was 2.1.

Consider TLDGYGIHPKSIDDDNYFTARRLL [L14D], for which the protein stability index is 2.71.

As for TLDGYGIHPKSIDWDNYFTARRLL [L14W], the protein stability index is 1.95.

Regarding TLDGYGIHPKSIDIDNYFTARRLL [L14I], the protein stability index amounted to 2.12.

TLDGYGIHPKSIDVDNYFTARRLL [L14V]: the protein stability index came out at 1.71.

In the case of TLDGYGIHPKSIDTDNYFTARRLL [L14T], the protein stability index was determined as 2.55.

For the variant TLDGYGIHPKSIDSDNYFTARRLL [L14S], the protein stability index amounted to 2.62.

Consider TLDGYGIHPKSIDHDNYFTARRLL [L14H], for which the protein stability index stood at 2.01.

For the variant TLDGYGIHPKSIDPDNYFTARRLL [L14P], the protein stability index worked out at 2.31.

TLDGYGIHPKSIDLDNYFTAQRLL [R21Q]: the protein stability index was found to be 1.71.

Turning to TLDGYGIHPKSIDLDNYFTADRLL [R21D], the protein stability index was 2.67.

On to TLDGYGIHPKSIDLDNYFTAYRLL [R21Y], for which the protein stability index is 3.26.

For TLDGYGIHPKSIDLDNYFTAMRLL [R21M], the protein stability index worked out at 1.86.

Turning to TLDGYGIHPKSIDLDNYFTALRLL [R21L], the protein stability index was 1.9.

In the case of TLDGYGIHPKSIDLDNYFTASRLL [R21S], the protein stability index was 1.69.

As to TLDGYGIHPKSIDLDNYFTAFRLL [R21F], the protein stability index is 1.77.

TLDGYGIHPKSIDLDNYFTAARLL [R21A]: the protein stability index was 1.67.

Take TLDGYGIHPKSIDLDNYFTAVRLL [R21V]: the protein stability index was 2.72.

TLDGYGIHPKSIDLDNYFTAPRLL [R21P]: the protein stability index turned out to be 2.05.

Take TLDGYGIHPKSIDLDNYFTAERLL [R21E]: the protein stability index came out at 2.12.

With TLDGYGIHPKSIDLDNYFTACRLL [R21C], the protein stability index is 1.7.

With TLDGYGIHPKSIDLDNYFTAGRLL [R21G], the protein stability index stood at 2.4.

For the variant TLDGYGIHPKSIDLDNYFTATRLL [R21T], the protein stability index amounted to 1.56.

As to TLDGYGIHPKSIDLDNYFTAIRLL [R21I], the protein stability index amounted to 1.6.

Consider TLDGYGIHPKSIDLDNYFTAWRLL [R21W], for which the protein stability index is 1.08.

Regarding TLDGYGIHPKSIDLDNYFTANRLL [R21N], the protein stability index stood at 1.8.

With TLDGYGIHPKSIDLDNYFTAKRLL [R21K], the protein stability index is 1.96.

As to TLDGYGIHPKSIDLDNYFTAHRLL [R21H], the protein stability index amounted to 2.8.

In the case of TLDGYGIHPKSIYLDNYFTARRLL [D13Y], the protein stability index is 1.46.

Regarding TLDGYGIHPKSISLDNYFTARRLL [D13S], the protein stability index is 1.83.

In the case of TLDGYGIHPKSINLDNYFTARRLL [D13N], the protein stability index came out at 2.1.

TLDGYGIHPKSIPLDNYFTARRLL [D13P]: the protein stability index was 2.26.

With TLDGYGIHPKSIRLDNYFTARRLL [D13R], the protein stability index came out at 1.91.

Turning to TLDGYGIHPKSILLDNYFTARRLL [D13L], the protein stability index came out at 1.73.

For TLDGYGIHPKSIVLDNYFTARRLL [D13V], the protein stability index turned out to be 1.76.

Turning to TLDGYGIHPKSITLDNYFTARRLL [D13T], the protein stability index came out at 2.11.

With TLDGYGIHPKSIQLDNYFTARRLL [D13Q], the protein stability index is 2.01.

For TLDGYGIHPKSIWLDNYFTARRLL [D13W], the protein stability index turned out to be 2.21.

As to TLDGYGIHPKSIMLDNYFTARRLL [D13M], the protein stability index worked out at 1.64.

In the case of TLDGYGIHPKSIDLDNNFTARRLL [Y17N], the protein stability index was found to be 2.59.

In the case of TLDGYGIHPKSIDLDNKFTARRLL [Y17K], the protein stability index is 2.57.

For TLDGYGIHPKSIDLDNAFTARRLL [Y17A], the protein stability index was determined as 1.88.

TLDGYGIHPKSIDLDNCFTARRLL [Y17C]: the protein stability index was found to be 1.71.

Take TLDGYGIHPKSIDLDNMFTARRLL [Y17M]: the protein stability index is 2.36.

For TLDGYGIHPKSIDLDNVFTARRLL [Y17V], the protein stability index is 2.21.

Consider TLDGYGIHPKSIDLDNGFTARRLL [Y17G], for which the protein stability index turned out to be 2.32.

In the case of TLDGYGIHPKSIDLDNWFTARRLL [Y17W], the protein stability index is 1.5.

On to TLDGYGIHPKSIDLDNRFTARRLL [Y17R], for which the protein stability index stood at 2.58.

Take TLDGYGIHPKSIDLDNPFTARRLL [Y17P]: the protein stability index was 3.23.

As to TLDGYGIHPKSIDLDNHFTARRLL [Y17H], the protein stability index came out at 2.56.

Turning to TLDGYGIHPKSIDLDNDFTARRLL [Y17D], the protein stability index was 2.64.

Take TLDGYGIHPKSIDLDNSFTARRLL [Y17S]: the protein stability index turned out to be 2.55.

Regarding TLDGYGIHPKSIDLDNLFTARRLL [Y17L], the protein stability index is 2.06.

For the variant TLDGYGIHPKSIDLDNEFTARRLL [Y17E], the protein stability index amounted to 3.09.

For TLDGYGIHPKSIDLDNFFTARRLL [Y17F], the protein stability index is 3.17.

TLDGYGIHPKSIDLDNIFTARRLL [Y17I]: the protein stability index is 2.25.

Regarding TLDGYGIHPKSIDLDNTFTARRLL [Y17T], the protein stability index was determined as 2.24.

For TLDGYGIHPKSIDLDNQFTARRLL [Y17Q], the protein stability index worked out at 2.92.
